Among the data in article PMC8446450, “Autosomal Recessive Cutis Laxa 1C Mutations Disrupt the Structure and Interactions of Latent TGFβ Binding Protein-4” (Frontiers in Genetics, 2021) are Kd values, retold here.

For orientation: Kd means the concentration at which binding is half-saturated. Higher therefore signals a looser complex.

For test [1], the target named is Latent TGFβ binding protein-4 (LTBP4S) C-terminal region, ARCL1C mutant C1186R (human). Nature of the test: SPR; ProteOn, LTBP4 C-terminal constructs amine-coupled on GLC chip, fibrillin-1 PF3 injected 100-3.1 nM, 10 mM HEPES, 150 mM NaCl, pH 7.4, 0.005% Tween-20, 25°C; steady state (equilibrium) analysis. In general terms: In SPR one partner is held on a chip, and binding of the other changes the refractive index at the surface.

In test [2] the target is T1, Tropoelastin (SHELdelta26A) (biotin where immobilised on streptavidin biosensors (position not given)).
T1 chain: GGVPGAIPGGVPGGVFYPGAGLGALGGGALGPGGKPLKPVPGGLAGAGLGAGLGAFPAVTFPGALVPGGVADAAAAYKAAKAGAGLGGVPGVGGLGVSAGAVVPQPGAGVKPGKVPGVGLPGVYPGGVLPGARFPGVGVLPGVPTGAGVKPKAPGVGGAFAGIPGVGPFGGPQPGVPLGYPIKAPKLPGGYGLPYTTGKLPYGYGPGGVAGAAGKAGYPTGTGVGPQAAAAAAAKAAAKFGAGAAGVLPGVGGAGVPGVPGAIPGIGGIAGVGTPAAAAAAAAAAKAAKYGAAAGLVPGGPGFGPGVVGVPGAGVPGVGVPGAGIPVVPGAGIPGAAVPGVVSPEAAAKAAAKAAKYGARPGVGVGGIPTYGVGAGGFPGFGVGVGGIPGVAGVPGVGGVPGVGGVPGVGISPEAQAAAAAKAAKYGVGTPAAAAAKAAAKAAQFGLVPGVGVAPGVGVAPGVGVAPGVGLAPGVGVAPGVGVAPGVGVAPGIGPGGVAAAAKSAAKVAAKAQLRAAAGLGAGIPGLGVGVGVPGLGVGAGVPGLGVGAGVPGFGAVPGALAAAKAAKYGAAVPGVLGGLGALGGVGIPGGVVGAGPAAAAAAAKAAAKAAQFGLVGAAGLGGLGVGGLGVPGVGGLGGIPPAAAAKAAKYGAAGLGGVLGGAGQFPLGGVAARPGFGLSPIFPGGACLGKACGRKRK
Description: BLI. On the technique in general: Biolayer interferometry detects binding as a change in optical thickness at a sensor tip.

Test [3] concerns the target Tropoelastin (SHELdelta26A). Description: BLI; OctetRED96, biotinylated tropoelastin on streptavidin biosensors, LTBP4 C-terminal constructs 375-23.4 nM, 10 mM HEPES, 150 mM NaCl, pH 7.4, 0.005% Tween-20, 25°C; steady state analysis.

Turning to “Fibrillin-1 PF3 fragment (from UniProt P35555 45-722) (domain or fragment)”, the Kd in test [1] was found to be 40.2 nM.

B1: Latent TGFβ binding protein-4 (LTBP4S) C-terminal region, ARCL1C mutant C1186R (domain or fragment)
chain: RECYFDTAAPDACDNILARNVTWQECCCTVGEGWGSGCRIQQRPGTETAEYQSLCPHGRGYLAPSGDLSLRRDVDECQLFRDQVCKSGVCVNTAPGYSCYCSNGYYYHTQRLECIDNDECADEEPACEGGRCVNTVGSYHCTCEPPLVLDGSQRRCVSNESQSLDDNLGVCWQEVGADLVCSHPRLDRQATYTECCCLYGEAWGMDCALCPAQDSDDFEALCNVLRPPAYSPPRPGGFGLPYEYGPDLGPPYQGLPYGPELYPPPALPYDPYPPPPGPFARREAPYGAPRFDMPDFEDDGGPYGESEAPAPPGPGTRWPYRSRDTRRSFPEPEEPPEGGSYAGSLAEPYEELEAEECGILDGCTNGRCVRVPEGFTCRCFDGYRLDMTRMACVDINECDEAEAASPLCVNARCLNTDGSFRCICRPGFAPTHQPHHCAPARPRA
Consider B1, for which the Kd in test [2] came to 55.9 nM; in test [3], 154 nM.
